According to paper PMC8065144:
Where “and” joins values, the source holds several entries; their conditions need not be identical. Equal entries are not always repeated.

Target: HA-tagged Glial Lazarillo (GLaz-HA) (Drosophila)
Assay: affinity purification on anti-HA beads and Western blot (bands of oligomers); GLaz-HA from larval brain extract concentrated on anti-HA beads, detected with anti-HA; the tetramers and dimers are destabilized into monomers by heat treatment or the reducing agent DTT

## HA-tagged Glial Lazarillo (GLaz-HA) (ligand)
  stoichiometry N: 4 and 2
